Assay in all cases: cryo-EM structure; human replisome: 150 nM CMG on fork DNA (60 nt or 15 nt 5′ flap) with 1.5-fold molar excess of AND-1, TIMELESS-TIPIN, CLASPIN and Pol α-primase; 25 mM HEPES-NaOH pH 7.6, 150 mM NaOAc, 0.5 mM TCEP, 500 μM AMP-PNP, 10 mM Mg(OAc)2, on ice; 10-30% glycerol gradient with glutaraldehyde and BS3 cross-linkers
Settings in all cases: both partners purified

For assay [1], the target named is T1, POLA1 (human Pol α catalytic subunit) (human, UniProt P09884 1-1462).
T1 construct: POLA1, human; modelled residues 1279-1445 and 1448-1458 (CTD); stood in the assay as a subunit of m18; also called POLA1CTD; POLA1_(exo-cat)
T1 sequence: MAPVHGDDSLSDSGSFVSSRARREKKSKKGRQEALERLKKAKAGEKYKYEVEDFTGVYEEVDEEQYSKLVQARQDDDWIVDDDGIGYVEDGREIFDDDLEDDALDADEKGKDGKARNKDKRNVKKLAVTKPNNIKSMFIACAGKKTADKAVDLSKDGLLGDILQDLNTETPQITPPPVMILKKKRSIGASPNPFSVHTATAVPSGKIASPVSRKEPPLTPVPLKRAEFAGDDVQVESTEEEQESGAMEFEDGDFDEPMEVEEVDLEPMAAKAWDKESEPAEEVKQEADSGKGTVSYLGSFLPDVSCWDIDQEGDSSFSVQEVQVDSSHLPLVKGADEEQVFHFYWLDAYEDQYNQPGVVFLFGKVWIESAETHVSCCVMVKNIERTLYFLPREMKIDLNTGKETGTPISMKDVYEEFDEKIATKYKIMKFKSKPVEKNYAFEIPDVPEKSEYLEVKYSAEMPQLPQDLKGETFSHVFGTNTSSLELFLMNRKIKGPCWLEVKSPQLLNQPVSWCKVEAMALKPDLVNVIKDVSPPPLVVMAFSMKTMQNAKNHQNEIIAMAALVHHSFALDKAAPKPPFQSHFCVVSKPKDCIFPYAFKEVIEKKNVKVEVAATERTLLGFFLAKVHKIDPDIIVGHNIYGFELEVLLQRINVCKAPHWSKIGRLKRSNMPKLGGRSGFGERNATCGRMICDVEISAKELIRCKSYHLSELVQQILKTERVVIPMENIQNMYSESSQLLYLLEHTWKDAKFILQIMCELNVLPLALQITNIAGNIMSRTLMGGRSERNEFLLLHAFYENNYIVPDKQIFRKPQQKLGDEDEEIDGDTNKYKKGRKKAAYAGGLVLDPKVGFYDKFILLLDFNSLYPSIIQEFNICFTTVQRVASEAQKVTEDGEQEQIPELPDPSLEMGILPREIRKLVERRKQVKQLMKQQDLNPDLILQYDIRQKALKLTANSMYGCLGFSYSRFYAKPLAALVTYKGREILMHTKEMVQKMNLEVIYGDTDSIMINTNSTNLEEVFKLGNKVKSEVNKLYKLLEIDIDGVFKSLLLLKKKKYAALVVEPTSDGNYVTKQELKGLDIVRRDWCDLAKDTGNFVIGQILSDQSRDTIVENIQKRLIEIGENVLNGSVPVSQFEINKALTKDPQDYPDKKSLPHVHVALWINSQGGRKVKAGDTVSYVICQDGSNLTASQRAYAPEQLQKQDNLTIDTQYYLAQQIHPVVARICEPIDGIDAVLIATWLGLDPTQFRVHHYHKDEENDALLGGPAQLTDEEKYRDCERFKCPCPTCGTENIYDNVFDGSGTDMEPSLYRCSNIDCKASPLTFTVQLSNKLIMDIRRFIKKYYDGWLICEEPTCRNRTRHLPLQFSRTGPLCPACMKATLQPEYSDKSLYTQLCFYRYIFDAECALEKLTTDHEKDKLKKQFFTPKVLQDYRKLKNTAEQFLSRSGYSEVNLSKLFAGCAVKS

Assay [2] deals with T2, human CMG (CDC45-MCM-GINS) replicative helicase (human, UniProt O75419 1-566; P49736 1-904; P25205 1-808; P33991 1-863; P33992 1-734; Q14566 …).
T2 construct: CDC45, human; MCM2, human; MCM3, human; MCM4, human; MCM5, human; MCM6, human; MCM7, human; PSF1, subunit of GINS, human; PSF2, subunit of GINS, human; PSF3, subunit of GINS, human; SLD5, subunit of GINS, human; the subunits are named in the methods for the MCM3-4A form, which was made as the wild type; copies: + + + + + + + + + +

Assay [3] addresses T3, PRIM2 (human primase accessory subunit) (human, UniProt P49643 1-509).
T3 construct: PRIM2, human; modelled residues 1-5 (N terminus) and 17-252 (NTD); stood in the assay as a subunit of m18; also called PRIM2NTD; PRIM2_(Nterm)
T3 sequence: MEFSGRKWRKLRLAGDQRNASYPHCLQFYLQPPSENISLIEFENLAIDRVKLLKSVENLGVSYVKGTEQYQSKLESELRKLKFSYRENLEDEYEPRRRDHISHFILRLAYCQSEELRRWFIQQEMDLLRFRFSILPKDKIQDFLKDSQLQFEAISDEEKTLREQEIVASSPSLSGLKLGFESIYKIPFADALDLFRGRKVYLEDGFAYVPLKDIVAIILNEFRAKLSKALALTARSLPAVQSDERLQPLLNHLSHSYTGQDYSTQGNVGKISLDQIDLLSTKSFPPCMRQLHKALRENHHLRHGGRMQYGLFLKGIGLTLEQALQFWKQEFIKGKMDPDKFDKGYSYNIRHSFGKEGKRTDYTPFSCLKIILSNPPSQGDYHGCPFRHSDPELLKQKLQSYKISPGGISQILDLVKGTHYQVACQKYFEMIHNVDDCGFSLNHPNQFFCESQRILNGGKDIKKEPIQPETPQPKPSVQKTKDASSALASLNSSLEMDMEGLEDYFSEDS

B1: POLA2 (human Pol α accessory subunit) (natural protein)
chain: MSASAQQLAEELQIFGLDCEEALIEKLVELCVQYGQNEEGMVGELIAFCTSTHKVGLTSEILNSFEHEFLSKRLSKARHSTCKDSGHAGARDIVSIQELIEVEEEEEILLNSYTTPSKGSQKRAISTPETPLTKRSVSTRSPHQLLSPSSFSPSATPSQKYNSRSNRGEVVTSFGLAQGVSWSGRGGAGNISLKVLGCPEALTGSYKSMFQKLPDIREVLTCKIEELGSELKEHYKIEAFTPLLAPAQEPVTLLGQIGCDSNGKLNNKSVILEGDREHSSGAQIPVDLSELKEYSLFPGQVVIMEGINTTGRKLVATKLYEGVPLPFYQPTEEDADFEQSMVLVACGPYTTSDSITYDPLLDLIAVINHDRPDVCILFGPFLDAKHEQVENCLLTSPFEDIFKQCLRTIIEGTRSSGSHLVFVPSLRDVHHEPVYPQPPFSYSDLSREDKKQVQFVSEPCSLSINGVIFGLTSTDLLFHLGAEEISSSSGTSDRFSRILKHILTQRSYYPLYPPQEDMAIDYESFYVYAQLPVTPDVLIIPSELRYFVKDVLGCVCVNPGRLTKGQVGGTFARLYLRRPAADGAERQSPCIAVQVVRI
notes: POLA2, human; stood in the assay as a subunit of m18
For the molecule B1, the binding result in assay [1] is reported as “binds”.

B2: TIMELESS-TIPIN (human) (complex)
chain 1: MDLHMMNCELLATCSALGYLEGDTYHKEPDCLESVKDLIRYLRHEDETRDVRQQLGAAQILQSDLLPILTQHHQDKPLFDAVIRLMVNLTQPALLCFGNLPKEPSFRHHFLQVLTYLQAYKEAFASEKAFGVLSETLYELLQLGWEERQEEDNLLIERILLLVRNILHVPADLDQEKKIDDDASAHDQLLWAIHLSGLDDLLLFLASSSAEEQWSLHVLEIVSLMFRDQNPEQLAGVGQGRLAQERSADFAELEVLRQREMAEKKTRALQRGNRHSRFGGSYIVQGLKSIGERDLIFHKGLHNLRNYSSDLGKQPKKVPKRRQAARELSIQRRSALNVRLFLRDFCSEFLENCYNRLMGSVKDHLLREKAQQHDETYYMWALAFFMAFNRAASFRPGLVSETLSVRTFHFIEQNLTNYYEMMLTDRKEAASWARRMHLALKAYQELLATVNEMDISPDEAVRESSRIIKNNIFYVMEYRELFLALFRKFDERCQPRSFLRDLVETTHLFLKMLERFCRSRGNLVVQNKQKKRRKKKKKVLDQAIVSGNVPSSPEEVEAVWPALAEQLQCCAQNSELSMDSVVPFDAASEVPVEEQRAEAMVRIQDCLLAGQAPQALTLLRSAREVWPEGDVFGSQDISPEEEIQLLKQILSAPLPRQQGPEERGAEEEEEEEEEEEEELQVVQVSEKEFNFLDYLKRFACSTVVRAYVLLLRSYQQNSAHTNHCIVKMLHRLAHDLKMEALLFQLSVFCLFNRLLSDPAAGAYKELVTFAKYILGKFFALAAVNQKAFVELLFWKNTAVVREMTEGYGSLDDRSSSRRAPTWSPEEEAHLRELYLANKDVEGQDVVEAILAHLNTVPRTRKQIIHHLVQMGLADSVKDFQRKGTHIVLWTGDQELELQRLFEEFRDSDDVLGHIMKNITAKRSRARIVDKLLALGLVAERRELYKKRQKKLASSILPNGAESLKDFCQEDLEEEENLPEEDSEEEEEGGSEAEQVQGSLVLSNENLGQSLHQEGFSIPLLWLQNCLIRAADDREEDGCSQAVPLVPLTEENEEAMENEQFQQLLRKLGVRPPASGQETFWRIPAKLSPTQLRRAAASLSQPEEEQKLQPELQPKVPGEQGSDEEHCKEHRAQALRALLLAHKKKAGLASPEEEDAVGKEPLKAAPKKRQLLDSDEEQEEDEGRNRAPELGAPGIQKKKRYQIEDDEDD
chain 2: MLEPQENGVIDLPDYEHVEDETFPPFPPPASPERQDGEGTEPDEESGNGAPVRVPPKRTVKRNIPKLDAQRLISERGLPALRHVFDKAKFKGKGHEAEDLKMLIRHMEHWAHRLFPKLQFEDFIDRVEYLGSKKEVQTCLKRIRLDLPILHEDFVSNNDEVAENNEHDVTSTELDPFLTNLSESEMFASELSRSLTEEQQQRIERNKQLALERRQAKLLSNSQTLGNDMLMNTPRAHTVEEVNTDEDQKEESNGLNEDILDNPCNDAIANTLNEEETLLDQSFKNVQQQLDATSRNITEAR
notes: TIPIN, human; source: purified (Strep-Tactin XT resin, TEV protease, HiTrap Q HP, Superdex 200)
For the molecule B2, in assay [2], the binding result is “binds”.

B3: PRIM1 (human primase catalytic subunit) (natural protein)
chain: METFDPTELPELLKLYYRRLFPYSQYYRWLNYGGVIKNYFQHREFSFTLKDDIYIRYQSFNNQSDLEKEMQKMNPYKIDIGAVYSHRPNQHNTVKLGAFQAQEKELVFDIDMTDYDDVRRCCSSADICPKCWTLMTMAIRIIDRALKEDFGFKHRLWVYSGRRGVHCWVCDESVRKLSSAVRSGIVEYLSLVKGGQDVKKKVHLSEKIHPFIRKSINIIKKYFEEYALVNQDILENKESWDKILALVPETIHDELQQSFQKSHNSLQRWEHLKKVASRYQNNIKNDKYGPWLEWEIMLQYCFPRLDINVSKGINHLLKSPFSVHPKTGRISVPIDLQKVDQFDPFTVPTISFICRELDAISTNEEEKEENEAESDVKHRTRDYKKTSLAPYVKVFEHFLENLDKSRKGELLKKSDLQKDF
notes: PRIM1, human; modelled residues 9-349 and 386-408; stood in the assay as a subunit of m18
Regarding B3, in assay [3], the binding result is “binds”.

The values above are taken from article PMC10501992, “How Pol α-primase is targeted to replisomes to prime eukaryotic DNA replication” (Molecular Cell, 2023).
